IntAct's records for PubMed 17932490

B1: Serine/threonine-protein kinase 4 (Homo sapiens), Q13043 (parent)
chain: METVQLRNPPRRQLKKLDEDSLTKQPEEVFDVLEKLGEGSYGSVYKAIHKETGQIVAIKQVPVESDLQEIIKEISIMQQCDSPHVVKYYGSYFKNTDLWIVMEYCGAGSVSDIIRLRNKTLTEDEIATILQSTLKGLEYLHFMRKIHRDIKAGNILLNTEGHAKLADFGVAGQLTDTMAKRNTVIGTPFWMAPEVIQEIGYNCVADIWSLGITAIEMAEGKPPYADIHPMRAIFMIPTNPPPTFRKPELWSDNFTDFVKQCLVKSPEQRATATQLLQHPFVRSAKGVSILRDLINEAMDVKLKRQESQQREVDQDDEENSEEDEMDSGTMVRAVGDEMGTVRVASTMTDGANTMIEHDDTLPSQLGTMVINAEDEEEEGTMKRRDETMQPAKPSFLEYFEQKEKENQINSFGKSVPGPLKNSSDWKIPQDGDYEFLKSWTVEDLQKRLLALDPMMEQEIEEIRQKYQSKRQPILDAIEAKKRRQQNF

Variants of: B1
Details: with akt1_human AKT1, P31749
akt1_human AKT1, P31749, sequence (P31749 whole entry): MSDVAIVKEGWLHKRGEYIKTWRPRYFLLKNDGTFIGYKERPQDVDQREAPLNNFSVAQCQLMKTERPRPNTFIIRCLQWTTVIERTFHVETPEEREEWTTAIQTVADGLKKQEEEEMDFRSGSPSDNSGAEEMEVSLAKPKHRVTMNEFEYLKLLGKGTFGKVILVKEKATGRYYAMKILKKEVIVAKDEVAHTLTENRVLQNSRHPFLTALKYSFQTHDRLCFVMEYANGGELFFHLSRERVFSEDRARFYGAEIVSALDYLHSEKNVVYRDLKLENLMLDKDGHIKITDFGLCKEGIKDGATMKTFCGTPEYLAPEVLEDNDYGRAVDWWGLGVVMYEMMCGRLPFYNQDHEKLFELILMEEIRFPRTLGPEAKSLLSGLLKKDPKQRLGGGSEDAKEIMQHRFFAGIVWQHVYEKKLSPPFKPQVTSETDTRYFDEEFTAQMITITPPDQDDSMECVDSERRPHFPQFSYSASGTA

Variant	effect of a mutation on the interaction
METVQLRNPPRRQLKKLDEDSLTKQPEEVFDVLEKLGEGSYGSVYKAIHKETGQIVAIRQVPVESDLQEIIKEISIMQQCDSPHVVKYYGSYFKNTDLWIVMEYCGAGSVSDIIRLRNKTLTEDEIATILQSTLKGLEYLHFMRKIHRDIKAGNILLNTEGHAKLADFGVAGQLTDTMAKRNTVIGTPFWMAPEVIQEIGYNCVADIWSLGITAIEMAEGKPPYADIHPMRAIFMIPTNPPPTFRKPELWSDNFTDFVKQCLVKSPEQRATATQLLQHPFVRSAKGVSILRDLINEAMDVKLKRQESQQREVDQDDEENSEEDEMDSGTMVRAVGDEMGTVRVASTMTDGANTMIEHDDTLPSQLGTMVINAEDEEEEGTMKRRDETMQPAKPSFLEYFEQKEKENQINSFGKSVPGPLKNSSDWKIPQDGDYEFLKSWTVEDLQKRLLALDPMMEQEIEEIRQKYQSKRQPILDAIEAKKRRQQNF [K59R]	disrupting interaction
